Measured values taken from patent US20040143098.

Tested on: DBF1 (Zea mays)
Test: cell_activity
Conditions: maize callus, GUS reporter; nearly 3-fold with ABA

Chain of DBF1 (Zea mays) (chain, as listed by the source): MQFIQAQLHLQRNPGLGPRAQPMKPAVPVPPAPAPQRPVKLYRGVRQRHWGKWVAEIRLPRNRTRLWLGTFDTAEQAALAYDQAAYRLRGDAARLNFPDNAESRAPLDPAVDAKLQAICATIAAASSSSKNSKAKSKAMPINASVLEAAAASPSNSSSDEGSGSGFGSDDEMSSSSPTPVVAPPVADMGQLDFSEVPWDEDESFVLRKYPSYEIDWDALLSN

rab17 promoter -350/+30
activity: 2 fold
